Test results: article PMC9020517

Experiments:
HDAC6 = HDAC6 (UniProt Q9UBN7); test: Strep bait enrichment from lysate, Western blot; conditions: reference: unmodified Strep-NEDD8; sites S65
Parkin = Parkin (UniProt O60260); test: Strep-Tactin pull-down, anti-Parkin blot; conditions: reference: unmodified Strep-NEDD8; sites S65

Question: Which results are given for “NEDD8 1-76 (from UniProt Q15843) Strep-pNEDD8 (pS65)”?
Answer: binding against the reference (HDAC6): stronger; binding against the reference (Parkin): stronger
